US20260248972A1, “DUAL RECEPTOR TARGETING RADIOLIGANDS AND USES THEREOF RELATED APPLICATIONS” (priority 2022, published 2026)
*1 amine or outer side, *2 acyl side, *3 side chain or, on linkers, in order; H or OH if unused. Where a SMILES comes first, the peptide text is derived from it. Bridges are numbered along the chain shown (N, C = ends). Side-chain parts run from the residue outwards. [ ]: non-standard residue; d: D form. The star is where a group is joined. X1 = CC(C)(C)C(=O)CN1C(=O)[C@H](N*)CN(C2CCCCC2)c2ccccc21; DOTA = O=C(O)CN1CCN(CC(=O)O)CCN(CC(=O)*)CCN(CC(=O)O)CC1; 3Abz = Nc1cccc(C(=O)O)c1; CO = O=C([*:1])[*:2]

Test: in vivo
Conditions: BALB/c nude, mouse, in vivo, iv, total radioactivity
Experimental: To a 0.5 M NaOAc buffer (20-50 μL, pH=4.5) was added 4 μL of exemplary or comparator compound in DMSO stock solution (2000 μM) and 2 mCi ^177Lu (ITM Isotope Technologies Munich), the resulting mixture was heated to 95° C. for 15 min. The resulting product was analyzed by radio-TLC and radio-HPLC (column: Shim-pack GIST 5 μm 4.6*150 mm; buffer A: 0.2% formic acid H2O; buffer B: 0.1% formic acid acetonitrile; flow rate: 1 mL/min; gradient: 0-5 min: 10% B to 95% B; then 5-8 min: 95% B). The labelled products were used immediately or diluted by a PBS buffer containing freshly added 3 mg/mL ascorbate.
All animal care and experimental procedure were performed by following the animal protocols approved by the ethics committee of China Institute of Radiation Protection. The BALB/c nude mice (Charles River, Beijing) were utilized for these studies. Mice were below 5 per cage in sterile, microisolator cages under temperature- and humidity-controlled conditions with a 12 h light/12 h dark schedule and fed irradiated rodent chow and reverse osmosis (RO) sterile water ad libitum. In preparation for tumor cell inoculations, mice were anesthetized with isoflurane (RWD Life Science Inc.) at an induction rate of 4% and maintained at a rate of 2.5% with 0.4 L oxygen delivered via precision vaporizer and a non-rebreathing apparatus. These mice received subcutaneous rear flank injections of approximately 4×10^6 AR42J cells ([…] pancreatic cancer cell line) suspended in 200 μL of phosphate-buffered saline (PBS) and Matrigel (Corning) (1/1). Xenografted tumors were allowed to grow for ~2-4 weeks post-inoculation and ranged in mass from 0.05 to 0.50 g (average tumor size, 0.20 g). […] The mice were euthanized, and the tissues and organs were excised from the animals at 4, 24 and 72 h post-injection. The tissues and organs were weighed, counted in a PerkinElmer 2480 WIZARD2 γ counter, and the percent injected dose (% ID) and % ID/g of each organ or tissue were calculated.

Compound: C[C@@H](O)[C@H](NC(=O)[C@@H]1CSSC[C@H](NC(=O)[C@@H](Cc2ccccc2)NC(=O)[C@H](CCCCNC(=O)c2cccc(NC(=O)N[C@@H]3CN(C4CCCCC4)c4ccccc4N(CC(=O)C(C)(C)C)C3=O)c2)NC(=O)CCOCCOCCOCCNC(=O)CN2CCN(CC(=O)O)CCN(CC(=O)O)CCN(CC(=O)O)CC2)C(=O)N[C@@H](Cc2ccc(O)cc2)C(=O)N[C@H](Cc2c[nH]c3ccccc23)C(=O)N[C@@H](CCCCN)C(=O)N[C@@H]([C@@H](C)O)C(=O)N1)C(=O)O [Compound I-48, DOTA-PEG3-K(Z360)-f[CYwKTC]T-OH]
- tissue to tissue ratio at 24 h (T/K Tumor/Kidney ratio): 1.8
- tissue to tissue ratio at 24 h (T/L Tumor/Liver ratio): 2.7
- tissue to tissue ratio at 24 h (T/P Tumor/Pancreas ratio): 14
- tissue to tissue ratio at 24 h (T/Sp Tumor/Spleen ratio): 19
- tissue to tissue ratio at 24 h (T/St Tumor/Stomach ratio): 4
- tissue uptake at 24 h (uptake Kidney): 10.6 %ID/g
- tissue uptake at 24 h (uptake Liver): 7.02 %ID/g
- tissue uptake at 24 h (uptake Pancreas): 1.35 %ID/g
- tissue uptake at 24 h (uptake Spleen): 1.02 %ID/g
- tissue uptake at 24 h (uptake Stomach): 4.75 %ID/g
- tissue uptake at 24 h (uptake Tumor): 18.9 %ID/g

Compound: C[C@@H](O)[C@H](NC(=O)[C@@H]1CSSC[C@H](NC(=O)[C@@H](Cc2ccccc2)NC(=O)CNC(=O)[C@H](CO)NC(=O)CNC(=O)[C@H](CCCCNC(=O)c2cccc(NC(=O)N[C@@H]3CN(C4CCCCC4)c4ccccc4N(CC(=O)C(C)(C)C)C3=O)c2)NC(=O)CN2CCN(CC(=O)O)CCN(CC(=O)O)CCN(CC(=O)O)CC2)C(=O)N[C@@H](Cc2ccc(O)cc2)C(=O)N[C@H](Cc2c[nH]c3ccccc23)C(=O)N[C@@H](CCCCN)C(=O)N[C@@H]([C@@H](C)O)C(=O)N1)C(=O)O [Compound 177Lu-I-54, metal not drawn] ({DOTA}-K([3Abz-CO-X1])GSG[dF]CY[dW]KTCT-OH; disulfide 6-11)
- tissue uptake at 4 h (% ID/g Adrenal gland): 2.34 %ID/g
- tissue uptake at 24 h (% ID/g Adrenal gland): 1.64 %ID/g
- tissue uptake at 72 h (% ID/g Adrenal gland): 1.12 %ID/g
- tissue uptake at 4 h (% ID/g Blood): 0.81 %ID/g
- tissue uptake at 24 h (% ID/g Blood): 0.16 %ID/g
- tissue uptake at 72 h (% ID/g Blood): 0.09 %ID/g
- tissue uptake at 4 h (% ID/g Fat): 3.5 %ID/g
- tissue uptake at 24 h (% ID/g Fat): 3.78 %ID/g
- tissue uptake at 72 h (% ID/g Fat): 2.66 %ID/g
- tissue uptake at 4 h (% ID/g Femur): 0.83 %ID/g
- tissue uptake at 24 h (% ID/g Femur): 0.66 %ID/g
- tissue uptake at 72 h (% ID/g Femur): 0.79 %ID/g
- tissue uptake at 4 h (% ID/g Heart): 1.29 %ID/g
- tissue uptake at 24 h (% ID/g Heart): 0.65 %ID/g
- tissue uptake at 72 h (% ID/g Heart): 0.5 %ID/g
- tissue uptake at 4 h (% ID/g Intestine): 2.07 %ID/g
- tissue uptake at 24 h (% ID/g Intestine): 1.56 %ID/g
- tissue uptake at 72 h (% ID/g Intestine): 1.14 %ID/g
- tissue uptake at 4 h (% ID/g Kidney): 20.7 %ID/g
- tissue uptake at 24 h (% ID/g Kidney): 10.5 %ID/g
- tissue uptake at 72 h (% ID/g Kidney): 8.45 %ID/g
- tissue uptake at 4 h (% ID/g Liver): 31.6 %ID/g
- tissue uptake at 24 h (% ID/g Liver): 9.6 %ID/g
- tissue uptake at 72 h (% ID/g Liver): 5.01 %ID/g
- tissue uptake at 4 h (% ID/g Lung): 2.65 %ID/g
- tissue uptake at 24 h (% ID/g Lung): 2.77 %ID/g
- tissue uptake at 72 h (% ID/g Lung): 1.91 %ID/g
- tissue uptake at 4 h (% ID/g Muscle): 0.3 %ID/g
- tissue uptake at 24 h (% ID/g Muscle): 0.21 %ID/g
- tissue uptake at 72 h (% ID/g Muscle): 0.16 %ID/g
- tissue uptake at 4 h (% ID/g Pancreas): 3.91 %ID/g
- tissue uptake at 24 h (% ID/g Pancreas): 2.65 %ID/g
- tissue uptake at 72 h (% ID/g Pancreas): 2.42 %ID/g
- tissue uptake at 4 h (% ID/g Spleen): 1.25 %ID/g
- tissue uptake at 24 h (% ID/g Spleen): 0.71 %ID/g
- tissue uptake at 72 h (% ID/g Spleen): 1.28 %ID/g
- tissue uptake at 4 h (% ID/g Stomach): 4.81 %ID/g
- tissue uptake at 24 h (% ID/g Stomach): 4.1 %ID/g
- tissue uptake at 72 h (% ID/g Stomach): 4.2 %ID/g
- tissue uptake at 4 h (% ID/g Tumor): 30 %ID/g
- tissue uptake at 24 h (% ID/g Tumor): 25.7 %ID/g
- tissue uptake at 72 h (% ID/g Tumor): 19.6 %ID/g
